# Assay results published in patent US10668134B2, “Dental pretreatment material and dental tissue regeneration kit” (National Center for Geriatrics and Gerontology, priority 2016, dated 2020).
# Assays:
# [1] = test system: canine dental pulp stem cells; test: Induction of dental pulp and dentin by dental pulp stem cells attached to treated fine-grained dentin particles; format: cell-based; settings: 7 days culture; for cell adhesion to treated dentin: fine-grained dentin treated for 10 minutes (0.05% trypsin; 1 mM EDTA; 0.05% chymotrypsin; 0.1 mg/mL MMP3), HE stain; for induction of the dental pulp stem cells into the dental pulp and dentin: fine-grained dentin treated for 10 minutes, vs untreated dentin
# Description: A tooth was extracted from a dog. The cementum and dental pulp of the tooth were removed mechanically. The tooth was then rinsed with tapping water for 3 hours, and then crushed into grains. Fine grains of dentin particles having a diameter of 500 μm to 1,000 μm (fine-grained dentin) were separated by use of a sieve. The fine-grained dentin particles was treated with a mixture liquid containing chloroform and methanol at room temperature for 6 hours, and then, with LiCl (8.0 M) at 4° C. for 24 hours. The fine-grained dentin was then inactivated in distilled water at 55° C. for 24 hours. Thereafter, the fine-grained dentin were divided into six groups: group (i) treated with 0.05% trypsin for 10 minutes; group (ii) treated with 0.05% trypsin and 1 mM EDTA for 10 minutes; a group (iii) treated with 1 mM of EDTA for 10 minutes; group (iv) treated with 0.05% chymotrypsin for 10 minutes; group (v) treated with 0.1 mg/mL MMP3 for 10 minutes; and group (vi) subjected to no treatment. Three fine grains of each of the groups were mixed with 2×10^5 canine dental pulp stem cells. Each mixture underwent centrifugation at 2,000 rpm for 5 minutes, followed by culture in Dulbecco's Modified Eagle's Medium containing 10% FBS at 37° C. for 7 days in the presence of 5% CO2. The culture was then fixed overnight with 4% paraformaldehyde. Paraffin sections were prepared according to a common method, and sliced into 5 μm thick ultrathin sections. The ultrathin sections underwent HE stain.
# [2] = test system: TGW cells (human neuroblastoma cell line); test: Neurite outgrowth in TGW cells with culture conditioned medium of senescent dental pulp stem cells; format: cell-based; settings: positive control, 50 ng/μl; after 48 hours
# Description: Non-separated 22nd-passage human dental pulp stem cells were brought into a state of 50% confluence. The medium was replaced with a serum-free medium. After 24 hours, the culture conditioned medium was collected. The supernatant was concentrated approximately 40-fold using Amicon Ultra-15 Centrifugal Filter Unit with Ultracel-3 membrane (Millipore, Billerica, Mass.) with 3-kDa molecular cut. Proteinase inhibitors (Halt™ proteinase inhibitor cocktail EDTA-free, Thermo Scientific, Rockford, Ill., USA) was added. The mixture was dispended to be stored at −80° C. Protein content was measured using Bradford Ultra™ (Expedeon, Cambridge, UK).
# The culture supernatant (5 μg/ml proteins) prepared in 1 above was added to TGW cells (human neuroblastoma cell line). Further, an ALK5 inhibitor (SB431542, 10 ng/μl) was added to a part of the resultant mixture, and a CCR3 antagonist (SB328437, 5 ng/μl) was added to another part of the resultant mixture. TGW cells to which only the culture supernatant was added was used as a negative control. […] Neurite outgrowth after 48 hours was observed and measured with an inverted microscope (Leica).
# [3] = test system: pulpectomized root canal of middle or advanced aged dog; test: Dental pulp regeneration following pulpectomy by autologous transplantation of dental pulp stem cells after trypsin pretreatment of the root canal; format: in vivo
# From the text: Under general anesthesia, anterior teeth of upper and lower jaws of middle or advanced aged dog and young aged dog were pulpectomized. For each tooth, the root canal was enlarged with #50-55 to the apex, and was irrigated alternately with a 5% sodium hypochlorite solution and a 3% hydrogen peroxide solution, followed by washing with physiologic saline. The root canal was completely dried with paper points, and hemorrhage was controlled. The root canal was completely closed with a temporary seal of cement and resin. After 7 to 14 days following the pulpectomy, the temporary seal was removed, and the root canal underwent the alternate washing, and then, washing with physiologic saline. Smear clean (3% EDTA) was then allowed to react for 2 minutes. The root canal was then further washed with physiologic saline, and dried. Thereafter, FRANCETIN⋅T⋅POWDER (2500 USP of crystalized trypsin per 10 mg) (MOCHIDA PHARMACEUTICAL CO., LTD.) at a concentration of 50 μg/ml (0.05%) or 500 μg/ml (0.5%) was allowed to react in the root canal for 10 minutes or 30 minutes. Washing with physiologic saline was then performed. As a control, a tooth on the opposite side was not treated. Further, FRANCETIN⋅T⋅POWDER was mixed with a nanobubble liquid into a 50 μg/ml (0.05%) solution. The solution was allowed to act in a similar manner for 10 minutes, followed by washing with physiologic saline. A root canal filler was prepared by suspending 1×10^6 autologous dental pulp stem cells, which had been membrane-isolated, in 40 μl of a scaffold (Koken Atelocollagen Implant, KOKEN CO., LTD.), and by suspending 3 μl of 100 μg/ml G-CSF (NEUTROGIN, Chugai Pharmaceutical Co., Ltd.). The root canal filler prepared was injected into each root canal such that no air bubbles were contained. The mobilized dental pulp stem cells were isolated using the membrane-isolation-type culture device described above. A hemostatic gelatin sponge (Spongel) was put on the root canal filler. The cavity was completely sealed with cement and resin. On day 14 following the transplantation, the teeth were extracted. According to a common method, 5 μm paraffin sections of longitudinal cross section were prepared. The paraffin sections were then H-E stained to undergo morphological observation. To analyze angiogenesis, the sections were immunostained with BS-1 lectin. Amounts of regenerated dental pulp of four sections were measured for each sample, and an average amount of four samples was determined as the amount of regenerated dental pulp of the sample.
# [4] = 50 μg/ml (0.05%), no dental pulp stem cells transplanted
molecule,measurement,setting,value
O=C(O)CN(CCN(CC(=O)O)CC(=O)O)CC(=O)O [EDTA],cell adhesion to treated dentin,[1],a less number of cells adhered
same,induction of the dental pulp stem cells into the dental pulp and dentin,[1],induction into the dentin was promoted
chymotrypsin,cell adhesion to treated dentin,[1],inferior in cell adhesiveness
"MMP3: 0.1 mg/mL MMP3, dentin treatment group (v)",cell adhesion to treated dentin,[1],inferior in cell adhesiveness
"GDNF: GDNF (Peproteck), positive control for neurite outgrowth (protein, UniProt P39905 78-211, looked up) Glial cell line-derived …: SPDKQMAVLPRRERNRQAAAANPENSRGKGRRGQRGKNRGCVLTAIHLNVTDLGLGYETKEELIFRYCSGSCDAAETTYDKILKNLSRNRRLVSDKVGQACCRPIAFDDDLSFLDDNLVYHILRKHSAKRCGCI",Neurite Outgrowth Length,[2],10540.1 ± 4800.7 μm
"trypsin (protein, UniProt P00760 24-246, looked up, FRANCETIN⋅T⋅POWDER (2500 USP of crystalized trypsin per 10 mg), serine protease dental pretreatment material) Serine protease 1: IVGGYTCGANTVPYQVSLNSGYHFCGGSLINSQWVVSAAHCYKSGIQVRLGEDNINVVEGNEQFISASKSIVHPSYNSNTLNNDIMLIKLKSAASLNSRVASISLPTSCASAGTQCLISGWGNTKSSGTSYPDVLKCLKAPILSDSSCKSAYPGQITSNMFCAGYLEGGKDSCQGDSGGPVVCSGKLQGIVSWGSGCAQKNKPGVYTKVCNYVSWIKQTIASN",cell adhesion to treated dentin,[1],cell adhesion was facilitated
same,induction of the dental pulp stem cells into the dental pulp and dentin,[1],more promoted
same,increase of the amount of regenerated dental pulp,"[3]; 50 μg/ml (0.05%) for 10 minutes prior to root canal filler, day 14, vs no pretreatment",2.5 times
same,amount of regenerated dental pulp,"[3]; 50 μg/ml (0.05%) for 30 minutes, compared with same concentration for 10 minutes, day 14",doubled
same,dental pulp regeneration,[3]; [4],almost no dental pulp was regenerated
same,inflammation around the periapical region,[3]; [4],no inflammation occurred
same,amount of regenerated dental pulp,"[3]; 500 μg/ml (0.5%) for 10 minutes, compared with 50 μg/ml (0.05%), day 14",did not cause any significant difference
same,abnormality at the periapical region,"[3]; after trypsin pretreatment and transplantation, day 14",Abnormality such as inflammation was not observed
same,"inflammatory cells, necrotic layer in dental pulp formed after treatment",[3]; day 14,"did not show any increase of inflammatory cells, formation of necrotic layer"
same,angiogenesis in the regenerated dental pulp (BS-1 lectin),"[3]; day 14, each pretreated sample",angiogenesis was observed
same,"calcification in the periapical tissue (Masson Trichrome stain, vimentin immunostaining)","[3]; dog 5 years of age, 0.05% trypsin 10 minutes, day 14",decomposed the calcification in the periapical tissue
